Data: doi:10.1101/2025.08.14.670363

Key:
[1] = target: actin-free Xenopus cyclase-associated protein 1 (Xenopus laevis); experiment: high-speed atomic force microscopy; F-actin held on a mica-supported lipid bilayer (DPPC:DPTAP:biotin-cap-DPPE 89:10:1); actin-free XCAP1 or XCAP1-actin complex injected at 20-100 nM; 30 mM KCl, 10 mM imidazole-HCl pH 7.0, 1 mM MgCl2, 0.5 mM EGTA, 10 mM DTT, 10 % glycerol, 0.2 mM ATP; room temperature; dwell time of single particles
[2] = target: Rabbit skeletal muscle actin filaments (rabbit) (UniProt P68135); experiment: as above

- stoichiometry N [1]: 4
- dwell time [2]: 0.2 s
- dwell time (small particles of the XCAP1-actin complex preparation) [2]: 0.2 s
- dwell time at the filament end [2]: 0.24 s
- dwell time at the filament side [2]: 0.2 s
Substance: actin-free Xenopus cyclase-associated protein 1 (natural protein)
